Data reported in doi:10.1101/2024.10.08.617332 (bioRxiv, 2024).

B1: αE-catenin α(CA) (M319G/R326E/R551E), as chain of the supra-complex (natural protein, mouse, UniProt P26231 1-906, looked up)
chain: MTAVHAGNINFKWDPKSLEIRTLAVERLLEPLVTQVTTLVNTNSKGPSNKKRGRSKKAHVLAASVEQATENFLEKGDKIAKESQFLKEELVVAVEDVRKQGDLMKSAAGEFADDPCSSVKRGNMVRAARALLSAVTRLLILADMADVYKLLVQLKVVEDGILKLRNAGNEQDLGIQYKALKPEVDKLNIMAAKRQQELKDVGNRDQMAAARGILQKNVPILYTASQACLQHPDVAAYKANRDLIYKQLQQAVTGISNAAQATASDDAAQHQGGSGGELAYALNNFDKQIIVDPLSFSEERFRPSLEERLESIISGAALGADSSCTEDDRRERIVAECNAVRQALQDLLSEYMGNAGRKERSDALNSAIDKMTKKTRDLRRQLRKAVMDHVSDSFLETNVPLLVLIEAAKNGNEKEVKEYAQVFREHANKLIEVANLACSISNNEEGVKLVRMSASQLEALCPQVINAALALAAKPQSKLAQENMDLFKEQWEKQVRVLTDAVDDITSIDDFLAVSENHILEDVNKCVIALQEKDVDGLDRTAGAIRGRAAEVIHVVTSEMDNYEPGVYTEKVLEATKLLSNTVMPRFTEQVEAAVEALSSDPAQPMDENEFIDASRLVYDGIRDIRKAVLMIRTPEELDDSDFETEDFDVRSRTSVQTEDDQLIAGQSARAIMAQLPQEQKAKIAEQVASFQEEKSKLDAEVSKWDDSGNDIIVLAKQMCMIMMEMTDFTRGKGPLKNTSDVISAAKKIAEAGSRMDKLGRTIADHCPDSACKQDLLAYLQRIALYCHQLNICSKVKAEVQNLGGELVVSGVDSAMSLIQAAKNLMNAVVQTVKASYVASTKYQKSQGMASLNLPAVSWKMKAPEKKPLVKREKQDETQTKIKRASQKKHVNPVQALSEFKAMDSI
notes: αE-catenin, mouse, untagged; residues 690–903 are modelled in the structure; used for the pairs that touch in the cryo-EM structure; also called αE-catenin ABD; ABD1; source: FreeStyle 293-F, co-expressed and purified within the tetramer Eβα(CA)-vinculin(T12-IV)

Key:
[1] = target: F-actin (chicken skeletal muscle actin) (UniProt P68139); assay: F-actin co-sedimentation assay; details: +CC (black bar; with mutant afadin-CC); mean ± SD of three independent experiments; parent: est. 0.89; read off a plot
[2] = target: the molecule itself; assay: cryo-EM structure; 2.5 μM tetramer Eβα(CA)-Vinculin(T12-IV) premixed with 5 μM afadin-CC, added to 0.6 μM F-actin on the grid; maps at 3.1 Å (straight, both strands decorated) and 4.1 Å (curved, one strand decorated)
[3] = target: B1; assay: as above; details: both partners purified

response [1] | Molecule | also measured
0.35 | Eβα(CA)–vinculin(T12-IV)–afadin-CC pentamer (from UniProt Q02248;P26231;P18206-2;Q9QZQ1-3) afadin-CC:F1564A | –
0.3 | Eβα(CA)–vinculin(T12-IV)–afadin-CC pentamer (from UniProt Q02248;P26231;P18206-2;Q9QZQ1-3) afadin-CC:W1514A; afadin-CC:R1516A; afadin-CC:D1517A; afadin-CC:F1564A | –
– | B1 | binding result [2]: binds
– | afadin-CC (afadin coiled-coil region, residues 1393–1602), purified (domain or fragment, mouse, UniProt Q9QZQ1-3 1393-1602, looked up, afadin coiled-coil region (afadin-CC), mouse; residues 1508–1578 are modelled in the structure; source: FreeStyle 293-F, transfected, purified (anti-GFP beads, TEV, MonoQ, SEC); not shown: GFP, N-terminal, cleaved) ANQAGPQSAQVAAAEWKKREEHQRWYEKEKARLEEERERKRREQERKLGQMRSQTLNPASFSPLATQAKPEKPSTLQRPQETVIRELQPQQQPRTIERKDLQYITISKEELSSGDSLSPDPWKRDAREKLEKQQQMHIVDMLSKEIHELQNKVDRTAEESDRLRKLMLEWQFQKRLQESKQKDEDDDEEEDDDVDTMLIMQRLEAERRAR | binding result [3]: binds
